What was measured:
Human cMet-ECD-his = target: T1, Human cMet-ECD-his (human, UniProt P08581 25-932); experiment: BLI (ForteBio), antibody on anti-hIgG Fc capture biosensor, soluble cMet-ECD-his 2.6-30 nM, 1:1 fit
T1 construct: extracellular domain; Soluble analyte in the ForteBio assay; also called hu cMet; soluble recombinant hu cMet protein; not shown: histidine-containing peptide (His tag)

Cyno cMet-ECD-his = target: T2, Cyno cMet-ECD-his (cynomolgus monkey); experiment: as above
T2 construct: extracellular domain; Soluble analyte in the ForteBio assay; also called cynomolgus monkey cMet
Experimental: Briefly, each antibody was bound and immobilized onto an anti-hIgG Fc Capture biosensor and then incubated in the presence of different concentrations (2.6-30 nM) of His-tagged soluble cMet. The kinetics of binding were determined via ForteBio analysis binding using a 1:1 binding fit model.

T1 sequence (P08581 25-932): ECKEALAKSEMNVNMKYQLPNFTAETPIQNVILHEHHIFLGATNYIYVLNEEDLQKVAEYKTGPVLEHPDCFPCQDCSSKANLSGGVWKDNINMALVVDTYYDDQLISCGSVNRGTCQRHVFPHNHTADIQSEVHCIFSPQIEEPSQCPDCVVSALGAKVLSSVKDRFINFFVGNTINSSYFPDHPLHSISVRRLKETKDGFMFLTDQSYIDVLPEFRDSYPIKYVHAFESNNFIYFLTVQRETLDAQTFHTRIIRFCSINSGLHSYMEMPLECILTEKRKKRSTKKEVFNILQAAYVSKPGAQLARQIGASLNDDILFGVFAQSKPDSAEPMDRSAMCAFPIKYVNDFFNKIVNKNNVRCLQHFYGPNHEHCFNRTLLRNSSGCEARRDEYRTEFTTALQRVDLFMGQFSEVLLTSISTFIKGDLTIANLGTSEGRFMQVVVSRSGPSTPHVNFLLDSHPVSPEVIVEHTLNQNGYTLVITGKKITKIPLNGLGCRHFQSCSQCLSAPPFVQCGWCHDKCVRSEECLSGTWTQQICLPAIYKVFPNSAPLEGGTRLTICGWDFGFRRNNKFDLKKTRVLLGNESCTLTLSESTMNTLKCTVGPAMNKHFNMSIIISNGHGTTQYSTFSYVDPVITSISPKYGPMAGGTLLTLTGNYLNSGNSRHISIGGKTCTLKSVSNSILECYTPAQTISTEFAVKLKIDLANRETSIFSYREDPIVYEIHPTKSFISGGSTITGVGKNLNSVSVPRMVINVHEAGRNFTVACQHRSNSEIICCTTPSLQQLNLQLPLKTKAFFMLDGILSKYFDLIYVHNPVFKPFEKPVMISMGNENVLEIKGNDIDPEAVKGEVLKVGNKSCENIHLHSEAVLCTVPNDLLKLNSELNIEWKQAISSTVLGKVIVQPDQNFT

Row | Binder | Kd (Human cMet-ECD-his) [nM] | koff (Human cMet-ECD-his) [s⁻¹] | kon (Human cMet-ECD-his) [M⁻¹ s⁻¹] | Kd (Cyno cMet-ECD-his) [nM] | koff (Cyno cMet-ECD-his) [s⁻¹] | kon (Cyno cMet-ECD-his) [M⁻¹ s⁻¹]
1 | hucMet27v1.2 (antibody, human IgG1, kappa, V domains shown, also called hu247.27.16 v1.2 (resurfaced); hu247.27.16 LC1.2 / HC1.0) VH: EVQLVESGGGLVQPGGSLRLSCAASGFTFSSYDMSWVRQTPGKGLELVATINSNGVSIYYPDSVKGRFTISRDIAKNTLYLQMSSLRAEDTAMYYCAREEITTEMDYWGQGTSVTVSS VL: DIVLTQSPASLAVSPGQRATISCRASESVDSYGNSFIHWYQQKPGQPPKLLIYRASNLESGIPARFSGSGSRTDFTLTINPVEANDVATYYCQQSNEEPLTFGGGTKLELKR | 0.989 | 0.000233 | 236000 | 0.928 | 0.000196 | 212000
2 | hucMet22Gv2.2 (antibody, V domains shown, also called humanized (CDR-grafted) cMET-22) VH: QVQLVQSGAEVKKPGASVKVSCKASGYTFTDYNMDWVRQAPGQRLEWIGDLNPNNGATIYNQKFKGRATLTVDMSASTAYMELSSLRSEDTAVYYCARGNYYGNYYYLMDYWGQGTSVTVSS VL: DIQMTQSPSSLSASVGDRVTITCRASENIYSTLAWYQQKPGKAPKLLVYAATNLADGVPSRFSGSGSGTDYTLTISSLQPEDFATYYCQHFWGTPYTFGQGTKVEIKR | 4.77 | 0.00213 | 445000 | 3.62 | 0.00128 | 353000
3 | hucMet27Gv1.3 (antibody, human IgG1, kappa, CDR-grafted cMET-27 with one S49A backmutation in VH; preferred construct) light: EIVLTQSPATLSLSPGERATLSCRASESVDSYGNSFIHWYQQKPGQAPRLLIYRASNLESGIPARFSGSGSGTDFTLTISSLEPEDFAVYYCQQSNEEPLTFGQGTKVELKRTVAAPSVFIFPPSDEQLKSGTASVVCLLNNFYPREAKVQWKVDNALQSGNSQESVTEQDSKDSTYSLSSTLTLSKADYEKHKVYACEVTHQGLSSPVTKSFNRGEC heavy: not shown | 1.81 | 0.000478 | 264000 | 1.94 | 0.000415 | 214000
4 | hucMet27Gv1.3HingeIgG2S127C (antibody) light: EIVLTQSPATLSLSPGERATLSCRASESVDSYGNSFIHWYQQKPGQAPRLLIYRASNLESGIPARFSGSGSGTDFTLTISSLEPEDFAVYYCQQSNEEPLTFGQGTKVELKRTVAAPSVFIFPPSDEQLKSGTASVVCLLNNFYPREAKVQWKVDNALQSGNSQESVTEQDSKDSTYSLSSTLTLSKADYEKHKVYACEVTHQGLSSPVTKSFNRGEC heavy: not shown | 1.67 | 0.000436 | 235000 | 1.47 | 0.00045 | 307000
5 | hucMet27Gv1.3Hinge26C442 (antibody, Hinge#26 and C442 (Cysmab) variant of hucMet27Gv1.3) light: EIVLTQSPATLSLSPGERATLSCRASESVDSYGNSFIHWYQQKPGQAPRLLIYRASNLESGIPARFSGSGSGTDFTLTISSLEPEDFAVYYCQQSNEEPLTFGQGTKVELKRTVAAPSVFIFPPSDEQLKSGTASVVCLLNNFYPREAKVQWKVDNALQSGNSQESVTEQDSKDSTYSLSSTLTLSKADYEKHKVYACEVTHQGLSSPVTKSFNRGEC heavy: not shown | 1.9 | 0.000497 | 262000 | 1.57 | 0.000496 | 317000
6 | hucMet27Gv1.3Hinge28 (antibody, Hinge#28 variant of hucMet27Gv1.3) light: EIVLTQSPATLSLSPGERATLSCRASESVDSYGNSFIHWYQQKPGQAPRLLIYRASNLESGIPARFSGSGSGTDFTLTISSLEPEDFAVYYCQQSNEEPLTFGQGTKVELKRTVAAPSVFIFPPSDEQLKSGTASVVCLLNNFYPREAKVQWKVDNALQSGNSQESVTEQDSKDSTYSLSSTLTLSKADYEKHKVYACEVTHQGLSSPVTKSFNRGEC heavy: not shown | 1.96 | 0.000451 | 230000 | 1.68 | 0.000564 | 336000
7 | hucMet27Gv1.2 (antibody, human IgG1, kappa, V domains shown, CDR-grafted cMET-27 with backmutations only in the VH domain (W47L, S49A, N73I); also called v1.2 (CDR-grafted)) VH: EVQLVESGGGLVQPGGSLRLSCAASGFTFSSYDMSWVRQAPGKGLELVATINSNGVSIYYPDSVKGRFTISRDIAKNSLYLQMNSLRAEDTAVYYCAREEITTEMDYWGQGTLVTVSS VL: EIVLTQSPATLSLSPGERATLSCRASESVDSYGNSFIHWYQQKPGQAPRLLIYRASNLESGIPARFSGSGSGTDFTLTISSLEPEDFAVYYCQQSNEEPLTFGQGTKVELKR | 0.941 | 0.000154 | 266000 | 0.614 | 0.000148 | 241000
8 | hucMet27Gv1.3C442 (antibody, Cysteine-engineered (C442, Cysmab) form of hucMet27Gv1.3, tested unconjugated) light: EIVLTQSPATLSLSPGERATLSCRASESVDSYGNSFIHWYQQKPGQAPRLLIYRASNLESGIPARFSGSGSGTDFTLTISSLEPEDFAVYYCQQSNEEPLTFGQGTKVELKRTVAAPSVFIFPPSDEQLKSGTASVVCLLNNFYPREAKVQWKVDNALQSGNSQESVTEQDSKDSTYSLSSTLTLSKADYEKHKVYACEVTHQGLSSPVTKSFNRGEC heavy: not shown | 1.64 | 0.000447 | 272000 | 1.6 | 0.000439 | 273000

Source: patent US20180230218A1 (IMMUNOGEN, published 2018)
